Experimental data published in patent publication US20200405889A1.
Where no end group is shown, it is not given here. [ ]: non-standard residue; d: D form. The star is where a group is joined. maleimido‑mono‑amide‑DOTA = O=C(O)CN1CCN(CC(=O)O)CCN(CC(=O)NCCN2C(=O)CC(*)C2=O)CCN(CC(=O)O)CC1

Tests used:
[1] = biological target: mouse chemokine (C-C motif) receptor 2 (CCR2) (mouse) (UniProt P51683); assay: cell-based or functional assay
[2] = biological target: human CCR2 (hCCR2) (human) (UniProt P41597); assay: autoradiography of ^64Cu-DOTA-ECL1i on human COPD lung tissue sections, co-incubation with 500-fold non-radioactive ECL1i
Sequence of human CCR2 (hCCR2) (human) (P41597 whole entry): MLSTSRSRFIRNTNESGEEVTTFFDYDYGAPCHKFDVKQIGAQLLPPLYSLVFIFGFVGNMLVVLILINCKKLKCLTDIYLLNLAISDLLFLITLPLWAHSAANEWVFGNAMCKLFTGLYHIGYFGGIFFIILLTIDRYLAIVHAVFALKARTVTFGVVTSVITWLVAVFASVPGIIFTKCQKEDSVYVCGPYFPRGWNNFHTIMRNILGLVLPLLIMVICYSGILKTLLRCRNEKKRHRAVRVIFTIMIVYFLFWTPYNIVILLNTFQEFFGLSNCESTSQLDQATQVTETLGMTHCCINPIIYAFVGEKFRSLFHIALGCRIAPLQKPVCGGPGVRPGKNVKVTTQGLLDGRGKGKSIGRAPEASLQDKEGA

Sequence of mouse chemokine (C-C motif) receptor 2 (CCR2) (mouse) (P51683 whole entry): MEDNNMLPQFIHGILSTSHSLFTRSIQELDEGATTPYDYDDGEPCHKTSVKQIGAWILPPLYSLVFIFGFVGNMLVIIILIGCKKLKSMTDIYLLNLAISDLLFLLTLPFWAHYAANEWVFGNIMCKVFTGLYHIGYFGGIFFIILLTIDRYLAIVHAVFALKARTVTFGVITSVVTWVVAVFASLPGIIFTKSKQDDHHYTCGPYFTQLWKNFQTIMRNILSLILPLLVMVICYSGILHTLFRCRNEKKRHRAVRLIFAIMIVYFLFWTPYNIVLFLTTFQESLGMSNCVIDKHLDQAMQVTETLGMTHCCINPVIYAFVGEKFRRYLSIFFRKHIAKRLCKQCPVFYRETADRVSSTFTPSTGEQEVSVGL

graft/native lung uptake ratio, PET 1 hour after transplantation, wild type B6 lung into wild type B6 recipient [1]	graft/native lung uptake ratio, PET at 1 hour with co-injected non-radiolabeled ECL1i [1]	graft/native lung uptake ratio, PET at 4 hours, wild type into wild type [1]	graft/native lung uptake ratio, PET at 24 hours, wild type into wild type [1]	lung PET uptake 24 h after intratracheal LPS [1]	lung PET uptake 24 h after intratracheal PBS [1]	lung PET uptake 48 h post-LPS [1]	lung PET uptake 144 h post-LPS [1]	lung PET uptake after low dose LPS [1]	lung PET uptake in LPS-treated mice co-injected with excess non-radioactive ECL1i (blocked) [1]	lung PET uptake in naive mice [1]	percent of PET signal in grafts blocked by competitive receptor blocking, wild type recipients [1]	percent of autoradiography signal blocked [2]	Binder
3.71	1.17	4.13	3.73	4.43 % ID/g	0.99 % ID/g	1.04 % ID/g	1.29 % ID/g	1.82 % ID/g	0.63 % ID/g	0.39 % ID/g	75%	–	[dL]G[dT][dF][dL][dK][dC](maleimido‑mono‑amide‑DOTA) (also: DOTA chelates 64Cu) [^64Cu-DOTA-ECL1i]
–	–	–	–	–	–	–	–	–	–	–	–	54.5%	[dL]G[dT][dF][dL][dK][dC] [ECL1i peptide d(LGTFLKC)]
